Among the data in patent US20220378931A1 (Eli Lilly, published 2022) are Ki values, retold here.

Assay [1] deals with T1, human insulin receptor isoform A with C-terminal C9 tag (human, UniProt P06213 28-1382).
T1 construct: membranes of stably transfected HEK293 cells; also called hIR-A; human IR-A
Kind of assay: 125I-insulin competition SPA, hIR-A membranes, 0.1% BSA. Here is the method: (§1) The assays are performed with a SPA method using polyvinyltoluene (PVT) wheat germ agglutinin-coupled SPA beads (Perkin Elmer). Assay buffer contains 50 mM Tris-HCl, pH 7.5, 150 mM NaCl and either A) 0.1% w/v fatty-acid free BSA; B) 0.1% w/v fatty-acid free human serum albumin (HSA); C) 0.1% w/v rat serum albumin (RSA); or D) 0.001% Nonidet P-40 Substitute (NP-40, Roche Diagnostics). Ten-point concentration response curves using three-fold serial dilutions of test samples or controls are prepared in Assay Buffer using a Freedom/Evo robot (Tecan).
(§2) Percent specific inhibition (y-axis) is plotted versus the log concentration of compound (x-axis). […] Reported Ki values are shown as the geometric mean with the standard error (Delta Method Standard Error) and the number of independent replicate determinations used to calculate the geometric mean indicated by n.

In assay [2] the target is T1, human insulin receptor isoform A with …. Briefly: 125I-insulin competition SPA, hIR-A membranes, 0.001% NP-40. The protocol:
as §1, §2

B1: INS Analog 3 (other)
chain: FVNQHLCGAHLVEALYLVCGERGFFYTPKTGGGGGGGIVEQCCTSICSLYQLENYCGPGPAPGPAPGPAPGPAPGPAPGPAPGPAPGPAEVQLLESGGGLVQPGGSLRLSCAASGRTVSSTAVAWFRQAPGKEREFVAGIGGSVDITYYADSVKGRFTISRDNSKNTLYLQMNSLRPEDTAVYYCAVRPGRPLITSRDANLYDYWGQGTLVTVSS
notes: single-chain insulin B-L2-A-L1-VHH fusion; also called Ex. 3
By Ki is commonly meant the equilibrium dissociation constant of an inhibitor or competing ligand from its target. In assay [1], B1 yielded an inhibitory constant (Ki) of 45.2 nM.

B2: INS Analog 6 (other)
chain: FVNQHLCGSHLVEALYLVCGERGFHYTPKTGGGGGGGIVEQCCTSICSLYQLENYCGPGPAPGPAPGPAPGPAPGPAPGPAPGPAPGPAEVQLLESGGGLVQPGGSLRLSCAASGRTVSSTAVAWFRQAPGKEREFVAGIGGSVDITYYADSVKGRFTISRDNSKNTLYLQMNSLRPEDTAVYYCAVRPGRPLITSRDANLYDYWGQGTLVTVSS
notes: single-chain insulin B-L2-A-L1-VHH fusion; also called Ex. 6
As for B2, in assay [1], the affinity corresponds to a Ki of 65.5 nM.

B3: INS Analog 5 (other)
chain: FVNQHLCGSHLVEALHLVCGERGFFYTPKTGGGGGGGIVEQCCTSICSLYQLENYCGPGPAPGPAPGPAPGPAPGPAPGPAPGPAPGPAEVQLLESGGGLVQPGGSLRLSCAASGRTVSSTAVAWFRQAPGKEREFVAGIGGSVDITYYADSVKGRFTISRDNSKNTLYLQMNSLRPEDTAVYYCAVRPGRPLITSRDANLYDYWGQGTLVTVSS
notes: single-chain insulin B-L2-A-L1-VHH fusion; also called Ex. 5
As to B3, in assay [1], affinity was put at a Ki of 57 nM. The Ki values of the last two molecules are within 1.5-fold of each other.

B4: INS Analog 4 (other)
chain: FVNQHLCGSHLVEALELVCGERGFFYTPKTGGGGGGGIVEQCCTSICSLYQLENYCGPGPAPGPAPGPAPGPAPGPAPGPAPGPAPGPAEVQLLESGGGLVQPGGSLRLSCAASGRTVSSTAVAWFRQAPGKEREFVAGIGGSVDITYYADSVKGRFTISRDNSKNTLYLQMNSLRPEDTAVYYCAVRPGRPLITSRDANLYDYWGQGTLVTVSS
notes: single-chain insulin B-L2-A-L1-VHH fusion; also called Ex. 4
With B4, the Ki in assay [1] was found to be 591 nM.

B5: INS Analog 8 (other)
chain: FVSQHLCGSHLVEALYLVCGERGFHYTPKTGGGGGGGIVEQCCTSICSLYQLENYCGPGPAPGPAPGPAPGPAPGPAPGPAPGPAPGPAEVQLLESGGGLVQPGGSLRLSCAASGRYIDETAVAWFRQAPGKEREFVAGIGGGVDITYYADSVKGRFTISRDNSKNTLYLQMNSLRPEDTAVYYCAARPGRPLITSKVADLYPYWGQGTLVTVSSPP
notes: single-chain insulin B-L2-A-L1-VHH fusion; also called Ex. 8
B5: the inhibition constant Ki in assay [2] was found to be 47.3 nM; in assay [1], 139 nM.

B6: INS Analog 10 (other)
chain: FVSQHLCGSHLVEALHLVCGERGFFYTPKTGGGGGGGIVEQCCTSICSLYQLENYCGPGPAPGPAPGPAPGPAPGPAPGPAPGPAPGPAEVQLLESGGGLVQPGGSLRLSCAASGRYIDETAVAWFRQAPGKEREFVAGIGGGVDITYYADSVKGRFTISRDNSKNTLYLQMNSLRPEDTAVYYCAARPGRPLITSKVADLYPYWGQGTLVTVSSPP
notes: single-chain insulin B-L2-A-L1-VHH fusion; also called Ex. 10
As to B6, the inhibition constant (Ki) in assay [2] was found to be 20.1 nM; in assay [1] it was 146 nM.

B7: INS Analog 9 (other)
chain: FVSQHLCGSHLVEALYLVCGERGFHYTPKTGGGGGGGIVEQCCHSICSLYQLENYCGPGPAPGPAPGPAPGPAPGPAPGPAPGPAPGPAEVQLLESGGGLVQPGGSLRLSCAASGRYIDETAVAWFRQAPGKEREFVAGIGGGVDITYYADSVKGRFTISRDNSKNTLYLQMNSLRPEDTAVYYCAARPGRPLITSKVADLYPYWGQGTLVTVSSPP
notes: single-chain insulin B-L2-A-L1-VHH fusion; also called Ex. 9
Consider B7, for which the Ki turned out to be 6.67 nM in assay [2] and 11.7 nM in assay [1].

B8: INS Analog 15 (other)
chain: FVSQHLCGSHLVEALFLVCGERGFFYTPKTGGGGGGGIVEQCCTSICSLYQLENYCGPGPAPGPAPGPAPGPAPGPAPGPAPGPAPGPAEVQLLESGGGLVQPGGSLRLSCAASGRYIDETAVAWFRQAPGKEREFVAGIGGGVDITYYADSVKGRFTISRDNSKNTLYLQMNSLRPEDTAVYYCAARPGRPLITSKVADLYPYWGQGTLVTVSSPP
notes: single-chain insulin B-L2-A-L1-VHH fusion; also called Ex. 15
For B8, the values for the Ki in assay [2] and in assay [1] were 13.1 nM and 39.2 nM, respectively.

B9: INS Analog 16 (other)
chain: FVSQHLCGSHLVEALWLVCGERGFFYTPKTGGGGGGGIVEQCCTSICSLYQLENYCGPGPAPGPAPGPAPGPAPGPAPGPAPGPAPGPAEVQLLESGGGLVQPGGSLRLSCAASGRYIDETAVAWFRQAPGKEREFVAGIGGGVDITYYADSVKGRFTISRDNSKNTLYLQMNSLRPEDTAVYYCAARPGRPLITSKVADLYPYWGQGTLVTVSSPP
notes: single-chain insulin B-L2-A-L1-VHH fusion; also called Ex. 16
As to B9, the inhibition constant (Ki) in assay [2] turned out to be 43.1 nM; in assay [1] it was 46 nM.

B10: INS Analog 20 (other)
chain: FVSQHLCGSHLVEALYLVCGERGFFYTPKTGGGGGGGIVEQCCTSICSLYQLENYCGPGPQPGPQPGPQPGPQPGPQPGPQPGPQPGPQEVQLLESGGGLVQPGGSLRLSCAASGRYIDETAVAWFRQAPGKEREFVAGIGGGVDITYYADSVKGRFTISRDNSKNTLYLQMNSLRPEDTAVYYCAARPGRPLITSKVADLYPYWGQGTLVTVSSPP
notes: single-chain insulin B-L2-A-L1-VHH fusion; also called Ex. 20
As for B10, the Ki in assay [2] came to 18.5 nM; in assay [1], 51.3 nM.

B11: INS Analog 22 (other)
chain: FVSQHLCGSHLVEALHLVCGERGFHYTPKTGGGGGGGIVEQCCHSICSLYQLENYCGPGPQPGPQPGPQPGPQPGPQPGPQPGPQPGPQEVQLLESGGGLVQPGGSLRLSCAASGRYIDETAVAWFRQAPGKEREFVAGIGGGVDITYYADSVKGRFTISRDNSKNTLYLQMNSLRPEDTAVYYCAARPGRPLITSKVADLYPYWGQGTLVTVSSPP
notes: single-chain insulin B-L2-A-L1-VHH fusion; also called Ex. 22
Turning to B11, the inhibition constant (Ki) in assay [2] came to 17.1 nM; in assay [1], 59.7 nM.

B12: INS Analog 19 (other)
chain: FVSQHLCGSHLVEALYLVCGERGFFYTPKTGGGGGGGIVEQCCTSICSLYQLENYCGGGGGQGGGGQGGGGQGGGGQGGGGQEVQLLESGGGLVQPGGSLRLSCAASGRYIDETAVAWFRQAPGKEREFVAGIGGGVDITYYADSVKGRFTISRDNSKNTLYLQMNSLRPEDTAVYYCAARPGRPLITSKVADLYPYWGQGTLVTVSSPP
notes: single-chain insulin B-L2-A-L1-VHH fusion; also called Ex. 19
As to B12, the Ki in assay [2] was 18.5 nM; in assay [1], 41.8 nM.

B13: INS Analog 21 (other)
chain: FVSQHLCGSHLVEALHLVCGERGFHYTPKTGGGGGGGIVEQCCHSICSLYQLENYCGGGGGQGGGGQGGGGQGGGGQGGGGQEVQLLESGGGLVQPGGSLRLSCAASGRYIDETAVAWFRQAPGKEREFVAGIGGGVDITYYADSVKGRFTISRDNSKNTLYLQMNSLRPEDTAVYYCAARPGRPLITSKVADLYPYWGQGTLVTVSSPP
notes: single-chain insulin B-L2-A-L1-VHH fusion; also called Ex. 21
Regarding B13, the results for the Ki in assay [2] and in assay [1] were 8.3 nM and 28 nM, respectively.
